Measured values published in patent US20050227289A1 (published 2005).
Residue numbers refer to the chain shown, from its start.

B1: Ab12 41/WT (scFv, part only; not given: display fusion parts and tags, part only)
scFv fusion displayed on yeast, part: GENKVEYAPALMALSQVQLQESGPGLVKPSETLSLTCTVSGASISSYYWSWIRQPPGKGLEWIGYIYYSGSTNYNPSLKSRVTISVDTSKNQFSLKLRSVTAADTAVYYCARERLGIGDYWGQGTLVTVSSGGGGSGGGGSGGGGSDIQLTQSPSSLSASVGDRVTITCRASQGIRNDLGWYQQKPGKAPKRLIYAASSLQSGVPSRFSGSGSGTEFTLTISSLQPEDFATYYCLQHNTYPPTFGQGTKVEIK
B2: Ab12 41/34 (scFv)
scFv: QVQLQESGPGLVKPSETLSLTCTVSGASISSYYWSWIRQPPGKGLEWIGYIYYSGSTNYNPSLKSRVTISVDTSKNQFSLKLRSVTAADTAVYYCARERLGIGDYWGQGTLVTVSSGHEAAAVMQVQYPASDIQLTQSPSSLSASVGDRVTITCRASQGIRNDLGWYQQKPGKAPKRLIYAASSLQSGVPSRFSGSGSGTEFTLTISSLQPEDFATYYCLQHNTYPPTFGQGTKVEIK
notes: not shown: Aga2/Xpress display part of pYD1 before the tether, and the C-terminal V5 and His tags
B3: Ab12 IgG2/K (antibody, V domains shown)
VH: QVQLQESGPGLVKPSETLSLTCTVSGASISSYYWSWIRQPPGKGLEWIGYIYYSGSTNYNPSLKSRVTISVDTSKNQFSLKLRSVTAADTAVYYCARERLGIGDYWGQGTLVTVSS
VL: DIQLTQSPSSLSASVGDRVTITCRASQGIRNDLGWYQQKPGKAPKRLIYAASSLQSGVPSRFSGSGSGTEFTLTISSLQPEDFATYYCLQHNTYPPTFGQGTKVEIK
B4: Ab12.56 (antibody, V domains shown)
VH: B3 VH with Y52A, Y53G, S54T
VL: B3 VL
B5: Ab12.118 (antibody, IgG2, V domains shown)
VH: B3 VH with Y52G
VL: B3 VL
B6: Ab12.120 (antibody, IgG2, V domains shown)
VH: B3 VH with S54E
VL: B3 VL
B7: Ab12.6 (antibody, V domains shown)
VH: B3 VH with Y52G, Y53G, S54E
VL: B3 VL
B8: Ab12.122 (antibody, IgG2, V domains shown)
VH: B3 VH with Y53G, S54E
VL: B3 VL
B9: Ab12.119 (antibody, IgG2, V domains shown)
VH: B3 VH with Y53G
VL: B3 VL
B10: Ab12.123 (antibody, IgG2, V domains shown)
VH: B3 VH with Y52G, S54E
VL: B3 VL
B11: Ab12.121 (antibody, IgG2, V domains shown)
VH: B3 VH with Y52G, Y53G
VL: B3 VL
B12: Ab12 WT/WT (scFv)
scFv: QVQLQESGPGLVKPSETLSLTCTVSGASISSYYWSWIRQPPGKGLEWIGYIYYSGSTNYNPSLKSRVTISVDTSKNQFSLKLRSVTAADTAVYYCARERLGIGDYWGQGTLVTVSSGGGGSGGGGSGGGGSDIQLTQSPSSLSASVGDRVTITCRASQGIRNDLGWYQQKPGKAPKRLIYAASSLQSGVPSRFSGSGSGTEFTLTISSLQPEDFATYYCLQHNTYPPTFGQGTKVEIK
notes: as for B2

How the values were obtained:
[1] = target: T1, soluble EpoR (EposR), soluble recombinant human erythropoietin receptor (human) (UniProt P19235); test: equilibrium titration of soluble EpoR on yeast-displayed scFv at 37 C, flow cytometry, detection with MAB307 + anti-mouse RPE
T1 sequence (looked up): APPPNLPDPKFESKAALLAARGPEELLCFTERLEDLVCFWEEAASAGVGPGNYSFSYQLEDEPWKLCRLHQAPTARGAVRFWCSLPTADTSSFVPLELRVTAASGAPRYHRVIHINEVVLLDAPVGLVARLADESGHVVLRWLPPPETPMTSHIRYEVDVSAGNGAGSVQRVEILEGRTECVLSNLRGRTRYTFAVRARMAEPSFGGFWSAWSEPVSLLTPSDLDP

[2] = target: T2, soluble EpoR (EposR), soluble recombinant human erythropoietin receptor (human, UniProt P19235 25-250, limits assumed); test: as above
T2 construct: Called only 'soluble EpoR (EposR)'
T2 sequence (looked up): T1 sequence (looked up)
Source text: FIG. 2 is a graph showing equilibrium binding of soluble EpoR with various Ab12 scFv constructs expressed on the surface of yeast cells. In FIG. 2, -▪- represents an Ab12 scFv construct comprising a Gly/Ser linker (WT), […] (SEQ ID NO:1) in both the tether and scFv linker positions, -●- represents an […] comprising linker 41, GENKVEYAPALMALS (SEQ ID NO:2) in the tether position and the Gly/Ser linker (WT) (SEQ ID NO:1) in the scFv linker position, -▴- represents an Ab12 scFv construct comprising linker 41 (SEQ ID NO:2) in the tether position and linker 40, […] (SEQ ID NO:3) in the scFv linker position, and -▾- represents an Ab12 scFv construct comprising linker 41 (SEQ ID NO:2) in the tether position and linker 34, […] (SEQ ID NO:4) in the scFv linker position.
Various single stranded oligonucleotides encoding Ab12 scFvs were co-transformed with a linearized “gapped” vector derived from pYD1 (Invitrogen, Carlsbad, Calif.) into yeast by techniques well known to practitioners in the art. Cell surface protein expression was compared by incubating the transformed yeast with increasing concentrations of soluble EpoR (EposR) at 37° C. (FIG. 2). Bound antigen was detected using a monoclonal antibody to EpoR, MAB307 obtained commercially from R and D Systems (Minneapolis, Minn.) followed by anti-mouse phycoerythrin (PE, Southern Biotech, Birmingham, Ala.). […]

[3] = target: T3, human erythropoietin receptor (EpoR) on UT-7/Epo cells (human, UniProt P19235 25-508); test: cell-based or functional assay
T3 sequence (looked up): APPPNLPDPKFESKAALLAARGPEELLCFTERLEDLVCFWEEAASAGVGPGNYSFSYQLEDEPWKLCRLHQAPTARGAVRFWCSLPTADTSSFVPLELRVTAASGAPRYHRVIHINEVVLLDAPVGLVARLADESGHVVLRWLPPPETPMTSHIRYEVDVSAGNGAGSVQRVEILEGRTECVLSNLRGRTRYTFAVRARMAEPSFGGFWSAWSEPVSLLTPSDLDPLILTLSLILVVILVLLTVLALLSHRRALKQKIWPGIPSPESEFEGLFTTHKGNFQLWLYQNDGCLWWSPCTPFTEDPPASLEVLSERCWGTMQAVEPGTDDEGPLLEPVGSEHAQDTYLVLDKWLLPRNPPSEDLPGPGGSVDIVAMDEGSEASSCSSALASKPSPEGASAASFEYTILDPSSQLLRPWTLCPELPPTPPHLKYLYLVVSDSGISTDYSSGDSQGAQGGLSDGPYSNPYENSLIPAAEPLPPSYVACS

| Emax (cell proliferation, absorbance) [3] | further results | Binder |
| --- | --- | --- |
|  | EC50 (read off the curve) [1]: 6 nM; Kd [1]: 5 nM | B1 |
|  | Kd [2]: 8.5 nM | B2 |
| 1.98 absorbance |  | B3 |
| 2.51 absorbance |  | B4 |
| 2.65 absorbance |  | B5 |
| 2 absorbance |  | B6 |
| 2.81 absorbance |  | B7 |
| 2.4 absorbance |  | B8 |
| 2.53 absorbance |  | B9 |
| 2.7 absorbance |  | B10 |
| 2.3 absorbance |  | B11 |
|  | Kd [2]: 9 nM | B12 |
